The chains are these.
B1: THAP1; numbered along this chain (parent)
chain: MVQSCSAYGCKNRYDKDKPVSFHKFPLTRPSLCKEWEAAVRRKNFKPTKYSSICSEHFTPDCFKRECNNKLLKENAVPTIFLCTEPHDKKEDLLEPQEQLPPPPLPPPVSQVDAAIGLLMPPLQTPVNLSVFCDHNYTVEDTMHQRKRIHQLEQQVEKLRKKLKTAQQRCRRQERQLEKLKEVVHFQKEKDDVSERGYVILPNDYFEIVEVPA

The variants in this data set derive from B1. Nature of the data set: THAP1 transcriptional activity (GFP+/GFP- enrichment relative to wild-type constructs) (ratio to WT); higher = more THAP1 activity (PSMB5 reporter activation). The conditions noted are these: with PSMB5 promoter-GFP reporter. In a few lines: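 A site-saturation library of human THAP1 (residues 2–213, each changed to all 20 amino acids) was transduced by lentivirus at MOI ~0.3, in duplicate, into THAP1-knockout HEK-293T cells carrying mClover3 knocked in at endogenous PSMB5. After five days, BFP+ cells were sorted into GFP-dim and GFP-bright bins, and variants were counted by Illumina sequencing of genomic DNA amplicons. Activity is the replicate-mean bright/dim read fold change divided by the mean of wild-type synonymous constructs.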
MVQSCSAYGCKNRYDKDKPVSFHKFPLTRPSLCKEWEAAVRRKNFKPTKYSSICSEHFTPDCFKRECNNKLLKEVAVPTIFLCTEPHDKKEDLLEPQEQLPPPPLPPPVSQVDAAIGLLMPPLQTPVNLSVFCDHNYTVEDTMHQRKRIHQLEQQVEKLRKKLKTAQQRCRRQERQLEKLKEVVHFQKEKDDVSERGYVILPNDYFEIVEVPA [N75V]: the THAP1 transcriptional activity is 0.214. Take MVQSCSAYGCKNRYDKDKPVSFHKFPLTRPSLCKEWEAAVRRKNFKPTKYSSICSEHFTPDCFKRECNNKLLKENAVPTIFLCTEPHDKKEDLLEPQEQLPPPPLPPPVSQVWAAIGLLMPPLQTPVNLSVFCDHNYTVEDTMHQRKRIHQLEQQVEKLRKKLKTAQQRCRRQERQLEKLKEVVHFQKEKDDVSERGYVILPNDYFEIVEVPA [D113W]: the THAP1 transcriptional activity came to 0.173. For MVQSCSAYGCKNRYDKDKPVSFHKFPLTRPSLCKEWEAAVFRKNFKPTKYSSICSEHFTPDCFKRECNNKLLKENAVPTIFLCTEPHDKKEDLLEPQEQLPPPPLPPPVSQVDAAIGLLMPPLQTPVNLSVFCDHNYTVEDTMHQRKRIHQLEQQVEKLRKKLKTAQQRCRRQERQLEKLKEVVHFQKEKDDVSERGYVILPNDYFEIVEVPA [R41F] the value was 0.233; for MVQSCSAYGCKNRYDKDKPVSFHKFPLTRPSLCKEFEAAVRRKNFKPTKYSSICSEHFTPDCFKRECNNKLLKENAVPTIFLCTEPHDKKEDLLEPQEQLPPPPLPPPVSQVDAAIGLLMPPLQTPVNLSVFCDHNYTVEDTMHQRKRIHQLEQQVEKLRKKLKTAQQRCRRQERQLEKLKEVVHFQKEKDDVSERGYVILPNDYFEIVEVPA [W36F], 0.221; for MVQSCSAYGCKNRYDKDKPVSFHKFPLTRPSLCKEWEAAVRRKNFKPTKYSSICSEHFTPDCFKRECNNKLLKENAVPTIFLCTEPHDKKEDLLEPQEQLPPPPLPPPVSQVDAAIGLLMPPLQTPVNLSVFCDHNYTVEDTMHQRKRIHQLEQQVEKLRKKLKTAQQRCREQERQLEKLKEVVHFQKEKDDVSERGYVILPNDYFEIVEVPA [R172E], 0.34. For MVQSCSAYGCKNRYDKDKPVSFHKFPLTRPSLCKEWEAAVRRKNFKPTKYSSICSEHFTWDCFKRECNNKLLKENAVPTIFLCTEPHDKKEDLLEPQEQLPPPPLPPPVSQVDAAIGLLMPPLQTPVNLSVFCDHNYTVEDTMHQRKRIHQLEQQVEKLRKKLKTAQQRCRRQERQLEKLKEVVHFQKEKDDVSERGYVILPNDYFEIVEVPA [P60W] the value was 0.256; for MVQSCSAYGCKNRYDKDKPVSFHKFPLTRPSLCKEWEAAVRRKNFKPTKYSSICSEHFTPDCFKRECNNKLLKENAVPTIFLCTEPHDKKEDLLEPQEQLPPPPLPPPVSQVDAAIGLLMPPLQTPVNLSVFCDHNYTVEDTMHQRKRIHQLEQQVEKLRKKLKTAQQRCRRQERQLEKLKEVVHFQKEKDDVSERGYVILPCDYFEIVEVPA [N203C], 0.834; for MVQSCSAYGCKNRYDKDKPVSFHKFPLTRPSLCKEWEAAVRRKNFKPTKYSSICSEHFTPDCFKRECNNKLLKENAVPTIFLCTEPHDKKEDLLEPQEQLPPPPLPPPVSQVDAAIGLLMPPLQTPVNLSVFCDHNYTVEDTMHQRKRIHQLEQQVEKLRKKRKTAQQRCRRQERQLEKLKEVVHFQKEKDDVSERGYVILPNDYFEIVEVPA [L163R], 0.163. Turning to MVQSCSAYGCKNRYDKDKPVSFHKFPLTRPSLCKEWEAAVRRKNFKPTKYSSICSEHFTPDCFKRECNNKLLKENAVPTIFLCTEPHDKKEDLLEPQEQLPPPPLPPPVSQVDAAIGLLMPPLQTPVNLSVFCDHNYTVEDTMHQRPRIHQLEQQVEKLRKKLKTAQQRCRRQERQLEKLKEVVHFQKEKDDVSERGYVILPNDYFEIVEVPA [K147P], the THAP1 transcriptional activity amounted to 0.502. For MVQSCSAYGCKNRYDKDKPVSFHKFPLTRPSLCKEWEAAVRRKNFKPTKYSSICSEHFTPDCFKRECNNKLLKENAVPTWFLCTEPHDKKEDLLEPQEQLPPPPLPPPVSQVDAAIGLLMPPLQTPVNLSVFCDHNYTVEDTMHQRKRIHQLEQQVEKLRKKLKTAQQRCRRQERQLEKLKEVVHFQKEKDDVSERGYVILPNDYFEIVEVPA [I80W] the value was 0.268.

Consider MVQSCSAYGCKNRYDKDKPVSFHKFPLTRPSLCKEWEAAVRRKNFKPTKYSSICSEHFTPDCFKRECNNKLLKENAVPTIFLCTEPHDKKEDLLEPQEQLPPPPLPPPVSQVDAAIGLLMPPLQTPVNLSVFCDHNYTVEDTMHQRKRIHQLEQQVPKLRKKLKTAQQRCRRQERQLEKLKEVVHFQKEKDDVSERGYVILPNDYFEIVEVPA [E157P], for which the THAP1 transcriptional activity stood at 0.228. For MVQSCSAYGCKNRYDKDKPVSFHKFPLTRPSLCKEWEAAVRRKNFKPTKYSSICSEHFTPDCFKRECNNKLLKENAVPTIFLCTEPHDKTEDLLEPQEQLPPPPLPPPVSQVDAAIGLLMPPLQTPVNLSVFCDHNYTVEDTMHQRKRIHQLEQQVEKLRKKLKTAQQRCRRQERQLEKLKEVVHFQKEKDDVSERGYVILPNDYFEIVEVPA [K90T] the value was 1.43; for MVQSCSAYGCKNRYDKDKPVSFHKFPLTRPSLCKEWEAAVRRKNFKPTKYSSICSEHFTPDCFKRECNNKLLKENAVPTIFLCTEPHDKKEDLLEPQEQLPPPPLPPPVSQVDAAIGLLMPPLQTPVNLSVFCDHNYTVEDTMHQRKRIHSLEQQVEKLRKKLKTAQQRCRRQERQLEKLKEVVHFQKEKDDVSERGYVILPNDYFEIVEVPA [Q151S], 0.793; for MVQSCSAYGCKNRYDKDKPVSFHKFPLTRPSLCKEWEAAVRRKNFKPTKYSSICSEHFTPDCFKRECNNKLLHENAVPTIFLCTEPHDKKEDLLEPQEQLPPPPLPPPVSQVDAAIGLLMPPLQTPVNLSVFCDHNYTVEDTMHQRKRIHQLEQQVEKLRKKLKTAQQRCRRQERQLEKLKEVVHFQKEKDDVSERGYVILPNDYFEIVEVPA [K73H], 0.598.
